Experimental data published in patent US12077576 (TRUSTEES OF TUFTS COLLEGE, dated 2024).

B1: JZS-F6 (XAF-12) anti-TcdB VHH (VHH)
VHH: QLQLAESGGGLVQPGGSLRLSCAASGITFSNVAMSWVRQAPGKGLEWVSTISTGGSSTSYLDSVKSRFTISRDNAKKTVYLQMNSLKPEDTAVYYCVKGPKYSATIRRPEGQGTQVTVSS
B2: JZT-F7 (XAG-1) anti-TcdB VHH (VHH)
VHH: QVQLVETGGGLVQAGGSLRLSCAASGSILSSMGWYRQAPGNQREFVASISRTGATDYADSVAGRFIISRDRGKNTVLALQMDSLKPEDTAVYYCNAGLGMGDPRRPGPWWGQGTQVTVSS
B3: JZS-C2 (XAF-6) anti-TcdB VHH (VHH)
VHH: QVQLAESGGGLVQPGGSLRLSCAASGFTSNSYYIGWFRQAPGKGREAVSSISSSGGSPNYANAVKGRFTITRDNANNTVYLQMDNLKPEDTAVYYCAASKFPLTTMASNRYHYWGQGTQVTVSS
B4: JZS-C10 (XAF-9) anti-TcdB VHH (VHH)
VHH: QLQLVETGGLVQAGGSLRLSCVGSGRGPGINVMGWYRQAPGTERELVATWQTGGTTNYADSVKGRFTISRDNLKNTVSLQMDSLKPEDTAVYYCYLKKWRDEYWGQGTQVTVSS
B5: JZS-H4 (XAF-13) anti-TcdB VHH (VHH)
VHH: QLQLVESGGGLVQPGGSLRLSCVASGFNFSVQIMSWVRQAPGKGLEWVSAISTGGASKSYADFAKGRFTISRDNAKNTLYLQMNSLQLEDTAVYFCSKGPRTWINSSPRGQGTQVTVSS
B6: JZT-G9 (XAG-7) anti-TcdB VHH (VHH)
VHH: QVQLAETGGGLVQAGGSLRLSCVSSERNPGINAMGWYRQAPGSQRELVAVWQTGGSLSYADSVKGRFTISRDNLKNTVYLQMNSLKPEDAAVYYCYLKKWRDQYWGQGTRVTVSS
B7: JZS-A2a (XAF-1) anti-TcdB VHH (VHH)
VHH: QVQLAESGGGLVQAGGSLRLSCAASGSVYTFMGWYRQAPGKTRELVAGISGGTITKYADSVKGRFIISRDSPKNTIYLQMNELKVEDTGVYYCNAGDTIAQAMGTRRFPFDRWGQGTQVTVAS
B8: JZS-B9 (XAF-5) anti-TcdB VHH (VHH)
VHH: QLQLVESGGGLVQPGGSLRLSCTSARFSLINYAIGWFRQAPGQKREGVSLLTSGGATYYADSARDRFTISRDNARNTVYLQMNSLKPEDTAVYSCAAGPYSRTLVSRWKVGDGMEYWGKGTLVTVSS
B9: JZS-B2 (XAF-4) anti-TcdB VHH (VHH)
VHH: QVQLAESGGGLVQAGGSLRLSCVGSGTSFPRNYMGWYRQAPGKQRELVAAISHDGNVEYADSVKGRFTISRGNFVNTVALQMNSLKSEDTAVYYCKLVTLRRDEYWGQGTQVTVSS
B10: JZS-H9 (XAF-14) anti-TcdB VHH (VHH)
VHH: QVQLVESGGGLVQPGGSLTINCTVSGTAFSLDTMTWYRQAPGKQRELAADISSSGASNYLASVKGRFTISRDNAKSALYLQMNSLKPEDTGTYYCYRGRVRGVWPLDSGMMYWGKGTLVTVSS
notes: also called JZX-H9
B11: JZS-E6 (XAF-11) anti-TcdB VHH (VHH)
VHH: QVQLAETGGGLVQAGGSLRLSCAASGRLSERIFMISTMAWYRQVPGKQRELVAEISRLGRANYSDSVTDRFIISRDNTKNTVDLQMNSLKPEDTAVYYCNLKPFVDNYRGPGTQVTVSS
B12: JZS-E4 (XAF-10) anti-TcdB VHH (VHH)
VHH: QVQLVESGGGLAQAGGSLRLSCAASGSSFSMNVMGWYRQPPGKQRELVATIRSDGITNYAESVKGRFTISRDNVKNTVHLEMNRLKAEDTAVYYCFHGRARTGNNADLGSWGQGTQVTVSS
notes: also called JZX-E4

biological target: T1, Clostridium difficile toxin B (TcdB) (Clostridium difficile, UniProt P18177 2-2366); assay: cell-based or functional assay
T1 sequence (P18177 2-2366): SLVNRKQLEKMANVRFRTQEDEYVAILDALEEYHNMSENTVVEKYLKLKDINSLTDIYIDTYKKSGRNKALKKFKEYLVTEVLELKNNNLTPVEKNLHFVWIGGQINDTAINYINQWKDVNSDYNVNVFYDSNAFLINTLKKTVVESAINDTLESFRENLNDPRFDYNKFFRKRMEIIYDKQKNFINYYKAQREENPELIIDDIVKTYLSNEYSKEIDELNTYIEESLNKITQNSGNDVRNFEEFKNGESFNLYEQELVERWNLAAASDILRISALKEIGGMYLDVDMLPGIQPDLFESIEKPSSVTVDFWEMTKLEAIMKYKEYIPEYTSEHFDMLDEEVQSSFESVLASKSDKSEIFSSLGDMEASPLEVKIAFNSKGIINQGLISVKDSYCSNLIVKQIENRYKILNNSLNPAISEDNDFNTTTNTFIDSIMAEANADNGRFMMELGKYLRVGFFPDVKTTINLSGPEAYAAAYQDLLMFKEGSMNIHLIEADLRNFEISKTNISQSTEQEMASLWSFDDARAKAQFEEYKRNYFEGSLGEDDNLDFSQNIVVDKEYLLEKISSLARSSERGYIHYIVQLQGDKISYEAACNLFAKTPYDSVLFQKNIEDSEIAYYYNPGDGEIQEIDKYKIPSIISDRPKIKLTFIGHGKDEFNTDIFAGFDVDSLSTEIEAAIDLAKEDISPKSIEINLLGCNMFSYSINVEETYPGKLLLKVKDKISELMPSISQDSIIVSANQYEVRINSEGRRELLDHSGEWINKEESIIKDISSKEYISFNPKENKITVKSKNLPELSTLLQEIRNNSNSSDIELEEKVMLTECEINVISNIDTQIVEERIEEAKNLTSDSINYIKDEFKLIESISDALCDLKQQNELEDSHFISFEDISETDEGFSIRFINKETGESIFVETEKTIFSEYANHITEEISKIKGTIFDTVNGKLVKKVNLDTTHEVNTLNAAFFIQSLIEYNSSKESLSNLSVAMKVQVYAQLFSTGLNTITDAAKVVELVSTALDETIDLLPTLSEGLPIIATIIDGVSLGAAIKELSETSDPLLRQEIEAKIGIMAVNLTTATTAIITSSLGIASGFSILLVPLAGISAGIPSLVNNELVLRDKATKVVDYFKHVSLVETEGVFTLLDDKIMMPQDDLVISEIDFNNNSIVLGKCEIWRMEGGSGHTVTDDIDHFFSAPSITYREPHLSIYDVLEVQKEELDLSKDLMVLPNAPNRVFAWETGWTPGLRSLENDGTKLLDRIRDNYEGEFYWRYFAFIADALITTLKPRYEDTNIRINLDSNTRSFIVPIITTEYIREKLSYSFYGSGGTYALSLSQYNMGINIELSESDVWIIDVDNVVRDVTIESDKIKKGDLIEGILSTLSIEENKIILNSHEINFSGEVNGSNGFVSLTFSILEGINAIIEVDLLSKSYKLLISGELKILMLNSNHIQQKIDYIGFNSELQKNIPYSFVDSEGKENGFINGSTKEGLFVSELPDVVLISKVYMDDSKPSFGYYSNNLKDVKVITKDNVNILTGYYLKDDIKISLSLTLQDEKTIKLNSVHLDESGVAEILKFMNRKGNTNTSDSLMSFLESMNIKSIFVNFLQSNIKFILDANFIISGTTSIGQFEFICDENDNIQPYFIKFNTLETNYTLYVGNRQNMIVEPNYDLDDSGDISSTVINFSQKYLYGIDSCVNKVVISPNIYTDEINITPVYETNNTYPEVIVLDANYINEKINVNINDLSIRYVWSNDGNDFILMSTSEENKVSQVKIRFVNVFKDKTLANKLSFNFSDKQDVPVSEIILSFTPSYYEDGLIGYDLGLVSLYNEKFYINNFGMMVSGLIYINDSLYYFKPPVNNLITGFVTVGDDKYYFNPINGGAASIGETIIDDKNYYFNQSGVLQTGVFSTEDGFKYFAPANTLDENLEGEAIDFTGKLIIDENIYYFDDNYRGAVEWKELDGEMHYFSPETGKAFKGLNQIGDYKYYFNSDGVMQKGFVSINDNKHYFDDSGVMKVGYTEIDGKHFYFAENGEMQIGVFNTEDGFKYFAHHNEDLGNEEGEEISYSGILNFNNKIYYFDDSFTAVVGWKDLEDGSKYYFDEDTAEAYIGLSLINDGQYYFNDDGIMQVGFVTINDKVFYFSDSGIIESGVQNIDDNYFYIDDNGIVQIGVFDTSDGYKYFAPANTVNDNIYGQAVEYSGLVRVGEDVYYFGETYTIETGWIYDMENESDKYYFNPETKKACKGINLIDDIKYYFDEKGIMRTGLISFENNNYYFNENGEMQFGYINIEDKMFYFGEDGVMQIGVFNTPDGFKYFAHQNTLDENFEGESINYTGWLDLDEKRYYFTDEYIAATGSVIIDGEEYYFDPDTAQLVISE

Binder	Apparent potency, (IC50); TcdB neutralization, Vero cell rounding assay [nM]
B1	0.5
B2	1
B3	0.5
B4	0.5
B5	0.5
B6	3
B7	> 25
B8	1
B9	> 125
B10	15
B11	1
B12	1

biological target: T1, Clostridium difficile toxin B (TcdB); assay: cell-based or functional assay; remark: another data set of the same source

Binder	IC50 TcdB-neutralization potency (FIG. 1), Vero cell rounding assay [nM]
B12	~0.5

biological target: T1, Clostridium difficile toxin B (TcdB); assay: ELISA, VHH dilution series on plate-coated rTcdB, anti-E-tag-HRP detection

Binder	EC50 [nM]
B1	0.1
B2	3
B3	3
B4	0.1
B5	0.2
B6	0.1
B7	> 25
B8	0.2
B9	0.3
B10	1
B11	0.8
B12	2
